Assay results as given in the supplement of paper PMC10567573.

B1: CDC14A (parent)
chain: GPHPKSKIENGYPLHAPEAYFPYF

Variants of: B1
Experiment: protein stability index of a GFP-peptide fusion (GPS, HEK-293T) (PSI 1-6); higher = more stable
Conditions: c terminus: a fixed tail appended
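Further: lentivirally expressed fusions sorted by FACS into six bins by GFP to DsRed ratio, PSI derived from sequencing read proportions per bin multiplied by bin number.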

**Q.** With GPHPKSKIENGYPLHAIEAYFPYF as the variant, how does the protein stability index read?
**A.** 2.06

**Q.** For GPHPKSKIENGYPLHAEEAYFPYF, which protein stability index is on record?
**A.** 2.11

**Q.** For GPHPKSKIENGYPLHACEAYFPYF, which protein stability index is on record?
**A.** 2

**Q.** With GPHPKSKIENGYPLHAFEAYFPYF as the variant, how does the protein stability index read?
**A.** 1.87

**Q.** With GPHPKSKIENGYPLHAKEAYFPYF as the variant, how does the protein stability index read?
**A.** 3.2

**Q.** For GPHPKSKIENGYPLHAHEAYFPYF, which protein stability index is on record?
**A.** 1.84

**Q.** For GPHPKSKIENGYPLHAAEAYFPYF, which protein stability index is on record?
**A.** 2.21

**Q.** Which protein stability index does the source give for GPHPKSKIENGYPLHAMEAYFPYF here?
**A.** 2.07

**Q.** Which protein stability index does the source give for GPHPKSKIENGYPLHADEAYFPYF here?
**A.** 2.71

**Q.** Which protein stability index does the source give for GPHPKSKIENGYPLHAGEAYFPYF here?
**A.** 2.48

**Q.** With GPHPKSKIENGYPLHALEAYFPYF as the variant, how does the protein stability index read?
**A.** 1.97

**Q.** With GPHPKSKIENGYPLHAREAYFPYF as the variant, how does the protein stability index read?
**A.** 1.8

**Q.** For GPHPKSKIENGYPLHANEAYFPYF, which protein stability index is on record?
**A.** 2.16

**Q.** With GPHPKSKIENGYPLHASEAYFPYF as the variant, how does the protein stability index read?
**A.** 1.87

**Q.** With GPHPKSKIENGYPLHAQEAYFPYF as the variant, how does the protein stability index read?
**A.** 2.14

**Q.** Which protein stability index does the source give for GPHPKSKIENGWPLHAPEAYFPYF here?
**A.** 1.86

**Q.** Which protein stability index does the source give for GPHPKSKIENGVPLHAPEAYFPYF here?
**A.** 2.19

**Q.** Which protein stability index does the source give for GPHPKSKIENGSPLHAPEAYFPYF here?
**A.** 2.73

**Q.** For GPHPKSKIENGRPLHAPEAYFPYF, which protein stability index is on record?
**A.** 2.58

**Q.** Which protein stability index does the source give for GPHPKSKIENGTPLHAPEAYFPYF here?
**A.** 3.07

**Q.** For GPHPKSKIENGYPYHAPEAYFPYF, which protein stability index is on record?
**A.** 1.89

**Q.** With GPHPKSKIENGYPKHAPEAYFPYF as the variant, how does the protein stability index read?
**A.** 2.4

**Q.** For GPHPKSKIENGYPNHAPEAYFPYF, which protein stability index is on record?
**A.** 2.81

**Q.** Which protein stability index does the source give for GPHPKSKIENGYPHHAPEAYFPYF here?
**A.** 2.68

**Q.** For GPHPKSKIENGYPQHAPEAYFPYF, which protein stability index is on record?
**A.** 3.06

**Q.** For GPHPKSKIENGYPWHAPEAYFPYF, which protein stability index is on record?
**A.** 2.46

**Q.** With GPHPKSKIENGYPFHAPEAYFPYF as the variant, how does the protein stability index read?
**A.** 2.02

**Q.** Which protein stability index does the source give for GPHPKSKIENGYPSHAPEAYFPYF here?
**A.** 2.79

**Q.** With GPHPKSKIENGYPIHAPEAYFPYF as the variant, how does the protein stability index read?
**A.** 2.27

**Q.** With GPHPKSKIENGYPGHAPEAYFPYF as the variant, how does the protein stability index read?
**A.** 2.65

**Q.** Which protein stability index does the source give for GPHPKSKIENGYPDHAPEAYFPYF here?
**A.** 2.59

**Q.** With GPHPKSKIENGYPAHAPEAYFPYF as the variant, how does the protein stability index read?
**A.** 2.46

**Q.** For GPHPKSKIENGYPCHAPEAYFPYF, which protein stability index is on record?
**A.** 1.67

**Q.** Which protein stability index does the source give for GPHPKSKIENGYPRHAPEAYFPYF here?
**A.** 2.51

**Q.** For GPHPKSKIENGYPMHAPEAYFPYF, which protein stability index is on record?
**A.** 2.41

**Q.** Which protein stability index does the source give for GPHPKSKIENGYPVHAPEAYFPYF here?
**A.** 2.11

**Q.** With GPHPKSKIENGYPTHAPEAYFPYF as the variant, how does the protein stability index read?
**A.** 2.45

**Q.** With GPHPKSKIENGYPEHAPEAYFPYF as the variant, how does the protein stability index read?
**A.** 3.65

**Q.** With GPHPKSKIENGYPLHIPEAYFPYF as the variant, how does the protein stability index read?
**A.** 2.04

**Q.** For GPHPKSKIENGYPLHSPEAYFPYF, which protein stability index is on record?
**A.** 2.14

**Q.** With GPHPKSKIENGYPLHDPEAYFPYF as the variant, how does the protein stability index read?
**A.** 2.45

**Q.** With GPHPKSKIENGYPLHCPEAYFPYF as the variant, how does the protein stability index read?
**A.** 2.84

**Q.** With GPHPKSKIENGYPLHHPEAYFPYF as the variant, how does the protein stability index read?
**A.** 2.32

**Q.** For GPHPKSKIENGYPLHMPEAYFPYF, which protein stability index is on record?
**A.** 2.01

**Q.** With GPHPKSKIENGYPLHGPEAYFPYF as the variant, how does the protein stability index read?
**A.** 2.77

**Q.** With GPHPKSKIENGYPLHWPEAYFPYF as the variant, how does the protein stability index read?
**A.** 1.99

**Q.** With GPHPKSKIENGYPLHNPEAYFPYF as the variant, how does the protein stability index read?
**A.** 2.25

**Q.** Which protein stability index does the source give for GPHPKSKIENGYPLHRPEAYFPYF here?
**A.** 2.35

**Q.** Which protein stability index does the source give for GPHPKSKIENGYPLHLPEAYFPYF here?
**A.** 1.95

**Q.** For GPHPKSKIENGYPLHKPEAYFPYF, which protein stability index is on record?
**A.** 2.12

**Q.** With GPHPKSKIENGYPLHVPEAYFPYF as the variant, how does the protein stability index read?
**A.** 2.21

**Q.** For GPHPKSKIENGYPLHQPEAYFPYF, which protein stability index is on record?
**A.** 2.49

**Q.** For GPHPKSKIENGYPLHEPEAYFPYF, which protein stability index is on record?
**A.** 2.4

**Q.** Which protein stability index does the source give for GPHPKSKIENGYPLHFPEAYFPYF here?
**A.** 1.82

**Q.** Which protein stability index does the source give for GPHPKSKIENGYPLHYPEAYFPYF here?
**A.** 2.29

**Q.** For GPHPKSKIENGYPLHTPEAYFPYF, which protein stability index is on record?
**A.** 2.41

**Q.** For GPHPKSKIENGYPLWAPEAYFPYF, which protein stability index is on record?
**A.** 1.2

**Q.** For GPHPKSKIENGYPLDAPEAYFPYF, which protein stability index is on record?
**A.** 2.63

**Q.** Which protein stability index does the source give for GPHPKSKIENGYPLTAPEAYFPYF here?
**A.** 2.74

**Q.** With GPHPKSKIENGYPLCAPEAYFPYF as the variant, how does the protein stability index read?
**A.** 2.23

**Q.** With GPHPKSKIENGYPLGAPEAYFPYF as the variant, how does the protein stability index read?
**A.** 2.59

**Q.** Which protein stability index does the source give for GPHPKSKIENGYPLFAPEAYFPYF here?
**A.** 1.7

**Q.** With GPHPKSKIENGYPLQAPEAYFPYF as the variant, how does the protein stability index read?
**A.** 1.93

**Q.** With GPHPKSKIENGYPLIAPEAYFPYF as the variant, how does the protein stability index read?
**A.** 1.87

**Q.** Which protein stability index does the source give for GPHPKSKIENGYPLKAPEAYFPYF here?
**A.** 2.7

**Q.** Which protein stability index does the source give for GPHPKSKIENGYPLRAPEAYFPYF here?
**A.** 2.29

**Q.** Which protein stability index does the source give for GPHPKSKIENGYPLPAPEAYFPYF here?
**A.** 2.57

**Q.** For GPHPKSKIENGYPLEAPEAYFPYF, which protein stability index is on record?
**A.** 2.79

**Q.** For GPHPKSKIENGYPLNAPEAYFPYF, which protein stability index is on record?
**A.** 2.37

**Q.** With GPHPKSKIENGYPLAAPEAYFPYF as the variant, how does the protein stability index read?
**A.** 2.45

**Q.** For GPHPKSKIENGYPLVAPEAYFPYF, which protein stability index is on record?
**A.** 2.53

**Q.** Which protein stability index does the source give for GPHPKSKIENGYPLMAPEAYFPYF here?
**A.** 1.96

**Q.** With GPHPKSKIENGYPLLAPEAYFPYF as the variant, how does the protein stability index read?
**A.** 1.76

**Q.** With GPHPKSKIENGYPLYAPEAYFPYF as the variant, how does the protein stability index read?
**A.** 1.68

**Q.** Which protein stability index does the source give for GPHPKSKIENGYPLSAPEAYFPYF here?
**A.** 2.83

**Q.** With GPHPKSKIENGYCLHAPEAYFPYF as the variant, how does the protein stability index read?
**A.** 1.97

**Q.** For GPHPKSKIENGYGLHAPEAYFPYF, which protein stability index is on record?
**A.** 2.39

**Q.** With GPHPKSKIENGYYLHAPEAYFPYF as the variant, how does the protein stability index read?
**A.** 1.88

**Q.** For GPHPKSKIENGYVLHAPEAYFPYF, which protein stability index is on record?
**A.** 2.05

**Q.** For GPHPKSKIENGYALHAPEAYFPYF, which protein stability index is on record?
**A.** 2.57

**Q.** Which protein stability index does the source give for GPHPKSKIENGYTLHAPEAYFPYF here?
**A.** 1.96

**Q.** With GPHPKSKIENGYFLHAPEAYFPYF as the variant, how does the protein stability index read?
**A.** 1.92

**Q.** With GPHPKSKIENGYMLHAPEAYFPYF as the variant, how does the protein stability index read?
**A.** 1.68

**Q.** With GPHPKSKIENGYILHAPEAYFPYF as the variant, how does the protein stability index read?
**A.** 1.43

**Q.** For GPHPKSKIENGYELHAPEAYFPYF, which protein stability index is on record?
**A.** 2.94

**Q.** Which protein stability index does the source give for GPHPKSKIENGYSLHAPEAYFPYF here?
**A.** 2.22

**Q.** With GPHPKSKIENGYKLHAPEAYFPYF as the variant, how does the protein stability index read?
**A.** 1.88

**Q.** With GPHPKSKIENGYNLHAPEAYFPYF as the variant, how does the protein stability index read?
**A.** 2.68

**Q.** For GPHPKSKIENGYHLHAPEAYFPYF, which protein stability index is on record?
**A.** 1.92

**Q.** With GPHPKSKIENGYRLHAPEAYFPYF as the variant, how does the protein stability index read?
**A.** 2.06

**Q.** With GPHPKSKIENGYDLHAPEAYFPYF as the variant, how does the protein stability index read?
**A.** 2.81

**Q.** Which protein stability index does the source give for GPHPKSKIENGYWLHAPEAYFPYF here?
**A.** 1.58

**Q.** Which protein stability index does the source give for GPHPKSKIENGYLLHAPEAYFPYF here?
**A.** 1.95

**Q.** With GPHPKSKIENGYQLHAPEAYFPYF as the variant, how does the protein stability index read?
**A.** 2.43
